We go through 2 substances from patent publication US6896881.

Assay [1] deals with human IGF1 receptor on 3T3-hIGF1r cells (human) (UniProt P08069). Put plainly: flow cytometry on 3T3-hIGF1r cells; 5.7 is the secondary antibody alone.
Assay [2] concerns the target human EGF receptor on CHO-hEGFr cells (human) (UniProt P00533). Nature of the assay: flow cytometry on CHO-hEGFr cells; 3.9 is the secondary antibody alone.

Sequence of UniProt P08069 (P08069 31-1367): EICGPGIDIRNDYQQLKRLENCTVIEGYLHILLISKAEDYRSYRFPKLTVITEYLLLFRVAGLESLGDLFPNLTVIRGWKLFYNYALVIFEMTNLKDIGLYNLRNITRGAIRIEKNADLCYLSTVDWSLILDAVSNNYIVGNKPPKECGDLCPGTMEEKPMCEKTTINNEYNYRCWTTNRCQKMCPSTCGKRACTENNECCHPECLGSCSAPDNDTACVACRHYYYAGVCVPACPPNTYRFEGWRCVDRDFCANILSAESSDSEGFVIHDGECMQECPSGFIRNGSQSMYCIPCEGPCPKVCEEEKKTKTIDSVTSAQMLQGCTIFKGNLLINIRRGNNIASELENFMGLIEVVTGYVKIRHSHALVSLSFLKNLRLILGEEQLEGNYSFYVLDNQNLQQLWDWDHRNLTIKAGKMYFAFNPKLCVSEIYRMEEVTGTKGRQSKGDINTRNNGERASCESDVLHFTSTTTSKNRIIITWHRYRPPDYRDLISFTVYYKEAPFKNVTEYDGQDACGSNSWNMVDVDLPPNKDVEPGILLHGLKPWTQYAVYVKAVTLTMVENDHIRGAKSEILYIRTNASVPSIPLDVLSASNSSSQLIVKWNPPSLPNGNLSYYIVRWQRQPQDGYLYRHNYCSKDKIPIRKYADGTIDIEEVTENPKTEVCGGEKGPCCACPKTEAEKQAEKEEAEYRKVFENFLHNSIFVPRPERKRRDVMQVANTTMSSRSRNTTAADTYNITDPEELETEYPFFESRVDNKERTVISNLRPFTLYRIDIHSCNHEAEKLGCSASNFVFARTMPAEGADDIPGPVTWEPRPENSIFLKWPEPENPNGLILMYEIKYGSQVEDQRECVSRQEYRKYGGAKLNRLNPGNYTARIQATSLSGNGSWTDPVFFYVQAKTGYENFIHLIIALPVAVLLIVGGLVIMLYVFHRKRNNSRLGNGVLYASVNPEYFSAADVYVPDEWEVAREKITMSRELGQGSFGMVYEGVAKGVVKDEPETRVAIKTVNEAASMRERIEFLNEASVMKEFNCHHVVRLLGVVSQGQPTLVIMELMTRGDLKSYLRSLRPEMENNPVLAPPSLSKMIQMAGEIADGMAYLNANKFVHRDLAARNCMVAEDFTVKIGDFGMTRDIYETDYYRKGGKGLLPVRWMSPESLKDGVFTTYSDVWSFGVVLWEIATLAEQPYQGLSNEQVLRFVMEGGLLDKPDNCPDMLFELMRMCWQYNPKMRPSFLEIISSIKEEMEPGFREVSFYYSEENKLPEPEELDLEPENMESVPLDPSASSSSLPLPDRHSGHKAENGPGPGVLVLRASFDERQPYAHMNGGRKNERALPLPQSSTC

In assay [1], “monoclonal anti-hIGF1r antibody clone 33255.111 (R&D Systems, MAB391)” returned a mean fluorescence of 251.
For “monoclonal anti-hEGFr antibody clone 528 (Santa Cruz, sc-120)”, in assay [2], the mean fluorescence was determined as 466.
